Measurements reported in IntAct's records for PubMed 24240280.

What was measured:
sv2c_human SV2C [1] = target: T1, sv2c_human SV2C (UniProt Q496J9)
T1 sequence: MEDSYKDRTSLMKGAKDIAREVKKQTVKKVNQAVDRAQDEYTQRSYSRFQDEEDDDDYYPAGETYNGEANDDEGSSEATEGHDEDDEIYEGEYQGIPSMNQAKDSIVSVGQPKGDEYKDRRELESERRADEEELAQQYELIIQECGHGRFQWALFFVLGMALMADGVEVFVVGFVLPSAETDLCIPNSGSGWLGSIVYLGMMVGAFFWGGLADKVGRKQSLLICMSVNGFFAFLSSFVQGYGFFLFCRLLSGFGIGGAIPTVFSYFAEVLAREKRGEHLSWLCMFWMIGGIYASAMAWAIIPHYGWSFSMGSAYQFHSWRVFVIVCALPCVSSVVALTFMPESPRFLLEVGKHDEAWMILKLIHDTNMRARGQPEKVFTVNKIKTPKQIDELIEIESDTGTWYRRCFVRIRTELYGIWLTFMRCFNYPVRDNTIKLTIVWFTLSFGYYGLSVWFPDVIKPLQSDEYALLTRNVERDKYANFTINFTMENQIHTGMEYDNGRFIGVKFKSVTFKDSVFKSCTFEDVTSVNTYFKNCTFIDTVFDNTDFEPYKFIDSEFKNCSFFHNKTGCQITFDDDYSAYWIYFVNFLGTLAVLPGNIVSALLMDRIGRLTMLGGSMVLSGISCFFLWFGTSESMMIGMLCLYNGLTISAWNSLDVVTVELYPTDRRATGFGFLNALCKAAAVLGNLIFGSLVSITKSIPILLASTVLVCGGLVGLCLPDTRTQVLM

sv2c_human SV2C [2] = target: T1, sv2c_human SV2C; remark: listed apart in the source

Substance	effect of a mutation on the interaction (sv2c_human SV2C [1])	effect of a mutation on the interaction (sv2c_human SV2C [2])
Botulinum neurotoxin type A (Clostridium botulinum) (from UniProt P0DPI0) T1145A;T1146A	decreasing interaction strength	disrupting interaction strength
Botulinum neurotoxin type A (Clostridium botulinum) (from UniProt P0DPI0) R1294A		decreasing interaction strength
Botulinum neurotoxin type A (Clostridium botulinum) (from UniProt P0DPI0) R1156E		decreasing interaction strength
